Key:
[1] = Loading of paclitaxel with recombinant fusion protein (pH response self-assembly), drug loading rate; assay type: physicochemical; conditions: 1 mg/ml protein, mixed at pH 5.5 with 10 mg/mL paclitaxel solution, then pH 7.4
Description: (§1) Albumin fusion protein powder freeze-dried by a freeze dryer was dissolved in a PBS buffer solution to prepare a 1 mg/ml solution, the pH was adjusted to 5.5 with a 1 mM HCl solution, after a 10 mg/mL paclitaxel solution was added, the pH was adjusted to 7.4 with a 1 mM NaOH solution, centrifugation was performed at 10000 rpm for 20 minutes, an obtained precipitate was uniformly mixed with ultrapure water and then centrifuged at 1000 rpm for 20 minutes, and the steps above were repeated 3 times to obtain a paclitaxel-loaded fusion protein nanoparticle.
A final drug loading rate was directly affected by a mixing ratio of albumin to a drug (for example, paclitaxel): Fusion albumin powder freeze-dried by a freeze dryer was dissolved in a PBS buffer solution to prepare a 1 mg/ml solution, the pH was adjusted to 5.5 with a 1 mM HCl solution, after a drug solution with a concentration of 5 mg/ml, 8 mg/ml, 12 mg/mL and 15 mg/ml was separately added, the pH was adjusted to 7.4 with a 1 mM NaOH solution, centrifugation was performed at 10000 rpm for 20 minutes, an obtained precipitate was uniformly mixed with ultrapure water and then centrifuged at 1000 rpm for 20 minutes, and the steps above were repeated 3 times to obtain a paclitaxel-loaded fusion protein nanoparticle. […]

[2] = Loading of docetaxel with recombinant fusion protein, drug loading rate; assay type: physicochemical; conditions: 1 mg/mL protein, mixed at pH 5.5 with 10 mg/ml docetaxel solution, then pH 7.4
Description: as §1, with “mg/mL” for “mg/ml”, “mg/ml docetaxel” for “mg/mL paclitaxel”, “a” for “a paclitaxel-loaded”

RH: albumin fusion protein 3RGD-HSA, without His fusion
drug loading rate (paclitaxel) [1]: 6.38%
drug loading rate (docetaxel) [2]: 7.08%
